US12391762B2, “Methods and compositions relating to GLP1R variants” (Twist Bioscience Corporation, priority 2020, dated 2025)

B1: GLP1R-3: antagonist GLP-1R IgG with GLP-1 motif in CDRH3 (SEQ ID NO 20) (antibody)
heavy: QVQLVESGGGVVQPGRSLRLSCAASGFTFSSYGMHWVRQAPGKGLEWVSFISYDESNKYYADSVKGRFTISRDNSKNTLYLQMNSLRAEDTAVYYCAKHMSMQEGAVTGEGQAAKEFIAWLVKGRVRADLVGDAFDVWGQGTLVTVSSASTKGPSVFPLAPCSRSTSESTAALGCLVKDYFPEPVTVSWNSGALTSGVHTFPAVLQSSGLYSLSSVVTVPSSNFGTQTYTCNVDHKPSNTKVDKTVERKCCVECPPCPAPPVAGPSVFLFPPKPKDTLMISRTPEVTCVVVDVSHEDPEVQFNWYVDGVEVHNAKTKPREEQFNSTFRVVSVLTVVHQDWLNGKEYKCKVSNKGLPAPIEKTISKTKGQPREPQVYTLPPSREEMTKNQVSLTCLVKGFYPSDIAVEWESNGQPENNYKTTPPMLDSDGSFFLYSKLTVDKSRWQQGNVFSCSVMHEALHNHYTQKSLSLSPGK
light: QSVLTQPPSVSAAPGQKVTISCSGSSSNIADNYVSWYQQLPGTAPKLLIYDNNKRPSGIPDRFSGSKSGTSATLGITGLQTGDEADYYCGTWDNYLGAGVFGGGTKLTVLGQPKAAPSVTLFPPSSEELQANKATLVCLISDFYPGAVTVAWKADSSPVKAGVETTTPSKQSNNKYAASSYLSLTPEQWKSHRSYSCQVTHEGSTVEKTVAPTECS

Key:
[1] = Insulin Tolerance Test (ITT); assay type: in vivo, mouse; conditions: for Area Under the Curve (AUC) in ITT: vs control
Method: Animals. All animal procedures were approved by Institutional Animal Care and Use Committee (IACUC) at the University of California San Francisco and were conducted in accordance with the National Institutes of Health Guide for the Care and Use of laboratory Animals. C57BL/6NHsd (Envigo RMS, LLC) male littermates at 8-10 weeks of age, weighing ˜20-28 grams, were used in all the studies described. The mice were housed in a room that was temperature (22-25 C) and light controlled (12-h: 12-h light/dark cycle starting at 7 AM. The mice were fed with chow diet with 9% fat (PicoLab mouse Diet 20 (#5058), Lab Supply, Fortworth Texas, USA) for the duration of housing at the UCSF animal care facility.
1. mAb administered as a single dose, 15 hours prior to GTT and 21 hours prior to ITT. 2. mAb administered as a double dose, 15 hours prior to GTT and 21 hours prior to ITT plus a second mAb dose 2 hours prior to GTT and ITT. 3. mAb as a single dose 6 hours prior to GTT and ITT. 4. mAb single dose 2 hours prior to GTT and ITT.
Extendin 9-39 Peptide (MedChemExpress, Cat. No.: HY-P0264) were dosed at 1.0 or 0.23 mg/kg at three different administration regimen groups. 1. Extendin administered as a single dose, 21 hours prior to ITT. 2. Extendin administered as a double dose, 21 hours prior to ITT plus a second Extendin dose 2 hours prior to ITT. 3. mAb as a single dose 6 hours prior to ITT.
An Insulin Tolerance Test (ITT) was conducted to assess two different anti-GLP1 mAbs (agonist and antagonist) effect on insulin sensitivity following acute insulin administration. 8 or 10-week old male mice were fasted for 6 hours and body weight was recorded before and after fasting. To avoid circadian variations in mouse blood glucose levels this testing was performed at fixed times. Blood samples were collected by tail nick and baseline glucose was measured prior to insulin injection. Mice were injected, i.p., with a single bolus (0.75 U/Kg body weight) of human insulin (Novolin, Novo Nordisk) and blood glucose levels were measured at 15, 30, 45, 60 and 120 minutes after insulin injection. Blood glucose levels were monitored using a OneTouch Ultra 2 glucose monitor (LifeScan, Inc.).

[2] = Rat PK study, ELISA for human IgG in plasma; assay type: in vivo; conditions: 10 mg/kg IV, 2-week PK study, beta phase
Method: The rat PK study was done at Charles River Laboratories, One Innovation Dr, 3 Biotech, Worcester, MA 01605. 5 Male Sprague-Dawley rats per group were allowed to acclimate after receiving at test facility for a minimum of 3 days before dosing. […] Serial blood samples were collected via jugular vein cannula with ˜250 ul volume at each time point: pre-dose, 0.0833, 0.25, 0.5, 1, 2, 4, 8, 24, 48, 72, 96, 168, 240 and 336 hours post dose. Blood samples were collected into K2EDTA tubes and stored on wet ice until processed to plasma by centrifugation (3500 rpm for 10 minutes at 5° C.) within 30 minutes of collection. Plasma samples were then transferred into an appropriate tube containing DPP-4 (3.3 μL for 100 μL of plasma) and frozen on dry ice. To measure the human IgG in rat plasma samples, sheep anti-Human IgG (1 mg/mL) was used as coating reagent) (The binding site, Lot No. AU003.M), and goat anti-Human IgG, HRP (H&L) (1 mg/mL) was used as detection reagent) (Bethyl, cat #A80-319P) in an ELISA assay. Stock solutions of human IgG standards and QCs were prepared by spiking human IgG into rat plasma. […] The semi-logarithmic sigmoid calibration curve was obtained by plotting the absorbance response against concentration. Concentrations of analyte in the test samples were determined by computer interpolation from the plot of the calibration curve.

CHO-parent cells = assay: Flow cytometry binding assay on CHO-parent cells (background binding); parameters: species or system Chinese Hamster
Method: GLP-1R IgG clones were tested in a binding assay coupled to flow cytometry analysis as follows: FLAG-GLP-1R-GFP expressing CHO cells (CHO-GLP-1R) and CHO-parent cells were incubated with 100 nM IgG for 1 h on ice, washed three times and incubated with Alexa 647 conjugated goat-anti-human antibody (1:200) (Jackson ImmunoResearch Laboratories, 109-605-044) for 30 min on ice, followed by three washes, centrifuging to pellet the cells between each washing step. All incubations and washes were in buffer containing PBS+1% BSA. For titrations, IgG was serially diluted 1:3 starting from 100 nM down to 0.046 nM. Cells were analyzed by flow cytometry and hits (a hit is an IgG that specifically binds to CHO-GLP-1R) were identified by measuring the GFP signal against the Alexa 647 signal. Flow cytometry data of binding assays with 100 nM IgG are presented as dot plots. Analyses of binding assays with IgG titrations are presented as binding curves plotting IgG concentrations against MFI (mean fluorescence intensity).

GLP-1R [3] = target: T1, GLP-1R (Homo sapiens, UniProt P43220); assay: Ec50; parameters: The full length human GLP-1R gene (UniProt-P43220) with an N-terminal FLAG tag and C-terminal GFP tag; expressed in transfected cells
Source text: Table printed on a drawing sheet, FIG. 16A

GLP-1R [4] = target: T1, GLP-1R; assay: cAMP assays (agonist and antagonist mode), GLP-1R over-expressing CHO-K1 cells; assay type: cell-based; parameters: host or cells: CHO-K1; conditions: pre-incubation with fixed concentration of IgG (100 nM), then GLP-1 7-36 titration
Method: CAMP assays. GLP-1R IgG clones were tested for their potential effects on GLP-1R signaling by performing cAMP assays obtained from Eurofins DiscoverXX. The technology involved in detecting cAMP levels is a no wash gain-of-signal competitive immunoassay based on Enzyme Fragment Complementation technology. Experiments were designed to test for either agonist or antagonist activity of the IgG clones. To test for agonist activity of the IgGs, cells were stimulated with IgG incubating for 30 min at 37° C. […] Intracellular CAMP levels were detected by following the assay kit instructions.
Target sequence in this assay (P43220 24-463): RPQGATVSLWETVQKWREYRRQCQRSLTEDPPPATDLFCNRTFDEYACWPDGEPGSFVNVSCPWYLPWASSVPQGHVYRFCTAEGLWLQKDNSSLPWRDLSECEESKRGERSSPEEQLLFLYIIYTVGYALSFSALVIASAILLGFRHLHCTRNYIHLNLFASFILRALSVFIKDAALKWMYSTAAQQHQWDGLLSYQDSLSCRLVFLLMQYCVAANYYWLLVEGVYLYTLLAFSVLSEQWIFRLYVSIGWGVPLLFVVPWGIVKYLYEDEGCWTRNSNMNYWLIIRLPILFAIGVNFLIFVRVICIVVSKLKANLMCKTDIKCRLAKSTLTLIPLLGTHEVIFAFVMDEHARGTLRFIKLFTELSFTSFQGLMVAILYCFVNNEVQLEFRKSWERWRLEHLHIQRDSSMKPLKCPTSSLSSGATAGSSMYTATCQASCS

GLP-1R [5] = target: T1, GLP-1R; assay: Beta arrestin recruitment assay, GLP-1R overexpressing CHO-K1 cells; assay type: cell-based; parameters: host or cells: CHO-K1; conditions: 100 nM IgG pre-incubated 1 hr
Method: Beta arrestin recruitment assy. β-arrestin recruitment assay was obtained from Eurofins DiscoverXX (Cat #93-0300E2) that utilized untagged GLP-1R overexpressing CHO-K1 cells. […] Expanded cells were seeded into 96 well plates at 5,000 cells/well, and the experiment was performed 48 hours after plating cells. […] Add 22.5 uL of detection solution to each well, tap gently and briefly spin down. Then incubate plates at RT for 1 hour in the dark. The plates were then read by a Chemiluminescence plate reader, Molecular Devices SpectraMax® M5, and output relative light units (RLU) data were analyzed using GraphPad Prism™.
Target sequence in this assay (P43220 24-463): as above

[6] = 19+2 hour, GLP1R-3 20 mg/kg, Exendin 1 mg/kg
[7] = 19+2 hours dosing regimen, C57BL/6NHsd mice
[8] = single 6 hour treatment, GLP1R-3 20 mg/kg, Exendin 1.0 and 0.23 mg/kg

Row | Molecule | Area Under the Curve (AUC) in ITT ([1]; 19+2 hour, Exendin 0.23 mg/kg) | Area Under the Curve (AUC) in ITT [1, 6] | blood glucose after insulin challenge [1, 7] | Area Under the Curve (AUC) in ITT [1, 8] | in vivo half-life [2] | Median RL1-H of Parent Singlets (CHO-parent cells; Table 6C, GLP1R-221 variants) | Median RL1-H of Parent Singlets (CHO-parent cells; Table 6D, GLP1R-222 variants) | Bmax CHO Parent (CHO-parent cells; Table 6E, IgG titration) | EC50 (GLP-1R [3]) | antagonist activity: effect on GLP-1 7-36-induced GLP-1R cAMP signaling (GLP-1R [4]) | blood glucose after insulin challenge ([1]; single 6 hour dosing regimen, comparator antibody experiment, 20 mg/kg) | blood glucose after insulin challenge ([1]; single 6 hour dosing regimen, compared to Exendin 9-39 or control) | Area Under the Curve (AUC) in ITT ([1]; single 6 hour treatment, comparator antibody experiment, 20 mg/kg) | effect on GLP-1 7-36 induced β-arrestin recruitment (GLP-1R [5])
1 | Exendin 9-39 [reference compound] | no significant difference | significant (p<0.0001) | significantly stabilizes a higher blood glucose | no significant difference |  |  |  |  |  |  |  |  |  | 
2 | B1 |  | significant (p<0.0001) | significantly stabilizes a higher blood glucose | significantly (p<0.05) stabilizes | ~1 week | 234 | 302.5 | 268 | 3.94 nM | clear dose-dependent inhibition of the CAMP signal | significantly stabilized a higher blood glucose | significantly stabilizes a higher blood glucose | significantly (p<0.05) stabilized | inhibition of GLP-1 7-36 peptide-induced beta arrestin recruitment
